Columns and labels:
[1] = biological target: bMERB domain (Rab binding domain) of Mical-cL, residues 534-683 (human) (UniProt O94851); assay: ITC; iTC200, 25°C; 400 µM Rab titrated into 20–40 µM bMERB domain in the cell; 20 mM Hepes pH 7.5, 50 mM NaCl, 2 mM MgCl2, 1 mM TCEP
Slac2-a/melanophilin = Slac2-a/melanophilin (UniProt Q91V27); conditions: cited from earlier work
Slp2-a = Slp2-a (UniProt Q99N50); conditions: cited from earlier work
Sequence of Slp2-a (Q99N50 whole entry): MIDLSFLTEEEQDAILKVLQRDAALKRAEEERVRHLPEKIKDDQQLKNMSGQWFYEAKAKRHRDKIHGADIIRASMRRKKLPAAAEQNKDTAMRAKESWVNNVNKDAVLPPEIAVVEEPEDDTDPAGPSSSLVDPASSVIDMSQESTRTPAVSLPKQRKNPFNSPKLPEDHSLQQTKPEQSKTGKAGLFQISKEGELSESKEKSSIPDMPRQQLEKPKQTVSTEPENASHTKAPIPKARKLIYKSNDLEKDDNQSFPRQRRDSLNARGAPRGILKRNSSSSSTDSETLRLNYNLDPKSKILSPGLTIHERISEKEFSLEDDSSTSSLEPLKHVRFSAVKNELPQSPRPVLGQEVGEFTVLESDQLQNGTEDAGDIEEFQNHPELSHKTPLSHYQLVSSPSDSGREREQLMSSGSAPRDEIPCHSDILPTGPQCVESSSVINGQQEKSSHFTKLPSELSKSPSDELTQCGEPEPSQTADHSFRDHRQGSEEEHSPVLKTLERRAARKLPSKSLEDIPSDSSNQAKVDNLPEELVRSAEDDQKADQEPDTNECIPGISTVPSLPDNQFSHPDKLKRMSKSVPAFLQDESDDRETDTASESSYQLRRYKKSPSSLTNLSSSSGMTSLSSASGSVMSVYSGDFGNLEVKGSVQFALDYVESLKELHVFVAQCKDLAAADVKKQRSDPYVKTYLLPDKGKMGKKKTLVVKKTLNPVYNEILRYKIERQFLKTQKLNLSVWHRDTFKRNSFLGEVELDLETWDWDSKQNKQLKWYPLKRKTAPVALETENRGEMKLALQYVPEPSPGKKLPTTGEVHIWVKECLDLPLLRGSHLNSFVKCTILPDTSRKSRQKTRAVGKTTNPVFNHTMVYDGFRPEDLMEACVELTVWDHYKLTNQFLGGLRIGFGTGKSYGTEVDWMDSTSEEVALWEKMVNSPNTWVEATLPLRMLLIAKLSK

Sequence of Rab27 (Q9ERI2 2-221): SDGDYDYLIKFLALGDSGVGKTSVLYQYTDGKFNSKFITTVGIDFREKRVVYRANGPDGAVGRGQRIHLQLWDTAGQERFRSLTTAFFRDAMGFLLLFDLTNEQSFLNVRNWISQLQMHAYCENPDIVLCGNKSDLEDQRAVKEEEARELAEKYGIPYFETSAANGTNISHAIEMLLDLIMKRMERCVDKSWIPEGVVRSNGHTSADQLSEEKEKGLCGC
Sequence of Slac2-a/melanophilin (Q91V27 whole entry): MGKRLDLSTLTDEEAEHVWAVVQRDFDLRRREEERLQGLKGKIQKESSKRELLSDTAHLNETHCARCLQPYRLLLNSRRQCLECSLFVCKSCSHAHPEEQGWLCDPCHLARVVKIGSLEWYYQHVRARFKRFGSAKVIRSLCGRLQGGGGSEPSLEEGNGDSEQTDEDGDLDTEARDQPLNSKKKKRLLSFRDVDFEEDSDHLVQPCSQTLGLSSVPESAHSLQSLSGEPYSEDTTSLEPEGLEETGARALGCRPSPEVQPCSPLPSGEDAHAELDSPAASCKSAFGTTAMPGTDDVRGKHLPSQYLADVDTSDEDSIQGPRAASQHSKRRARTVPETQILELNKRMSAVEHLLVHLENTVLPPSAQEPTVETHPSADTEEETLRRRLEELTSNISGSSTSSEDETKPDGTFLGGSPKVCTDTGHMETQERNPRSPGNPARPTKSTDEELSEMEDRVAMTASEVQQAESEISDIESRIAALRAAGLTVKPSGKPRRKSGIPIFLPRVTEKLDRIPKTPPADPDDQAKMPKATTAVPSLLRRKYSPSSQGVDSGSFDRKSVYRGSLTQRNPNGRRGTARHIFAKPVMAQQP
Sequence of bMERB domain (Rab binding domain) of Mical-cL, residues 534-683 (human) (O94851 1796-1945): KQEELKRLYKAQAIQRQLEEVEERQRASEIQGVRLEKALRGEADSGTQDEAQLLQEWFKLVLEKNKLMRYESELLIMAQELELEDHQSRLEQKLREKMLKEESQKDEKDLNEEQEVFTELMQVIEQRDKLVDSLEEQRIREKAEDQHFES

| Kd [1] | Substance | Kd (Slac2-a/melanophilin) | Kd (Slp2-a) |
| --- | --- | --- | --- |
| 1.1 µM | Rab1R8N, chimera of Rab1b with the 4 N-terminal residues of Rab8 (from UniProt Q9H0U4 5-201) (natural protein) | – | – |
| – | Rab27 (from UniProt Q9ERI2) | 0.112 µM | 0.0134 µM |

From publication PMC5026484
